Source: PMC9352680, “A comprehensive thermodynamic model for RNA binding by the Saccharomyces cerevisiae Pumilio protein PUF4”

T1: PUF4 RNA-binding domain (Saccharomyces cerevisiae, UniProt P25339 537-888)
T1 sequence: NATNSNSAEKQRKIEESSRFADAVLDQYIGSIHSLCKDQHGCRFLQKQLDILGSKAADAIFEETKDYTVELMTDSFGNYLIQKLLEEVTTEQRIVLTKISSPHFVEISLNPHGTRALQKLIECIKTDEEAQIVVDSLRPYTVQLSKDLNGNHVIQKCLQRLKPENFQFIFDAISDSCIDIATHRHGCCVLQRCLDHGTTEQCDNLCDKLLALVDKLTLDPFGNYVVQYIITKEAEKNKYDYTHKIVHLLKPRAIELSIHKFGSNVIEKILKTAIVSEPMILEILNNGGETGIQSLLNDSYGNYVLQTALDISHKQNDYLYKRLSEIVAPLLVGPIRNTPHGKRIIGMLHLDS


Biological target: T1, PUF4 RNA-binding domain
Test: Mg; RNA-MaP; 20 mM Na-HEPES pH 7.4, 30 mM KOAc, 0.75 mM MgCl2, 0.1% Tween-20, 5% glycerol, 0.1 mg/mL BSA, 2 mM DTT; 25 C; 0.0125-409.6 nM protein
Settings: tags: N-His6-TEV cleaved; C-SNAP kept, Cy3B-labelled; label: tethered on chip by stalled RNA polymerase

Binder	Kd
ACAAACUCUAUAUAUUAUCACAAAC (ssRNA) [Id_ii_S3_P4E.3_K4.2_C4.2_[C-2T]_[T-1C]_H4.2_A4.1_F4.1_T4.2_[G10T]_[T11C]]	16.3 nM
UCUCUUUGUAUUCUUGUCUCUU (ssRNA) [Ib_S1_P5E.1_K5.1_C5.1_H5.1_A5.1_[A7C]_F5.1_[A10G]_T5.1]	20.4 nM
ACAAACACUAUAUAUUAUCACAAAC (ssRNA) [Id_ii_S3_P4E.3_K4.2_C4.2_[C-2A]_[T-1C]_H4.2_A4.1_F4.1_T4.2_[G10T]_[T11C]]	17.7 nM
ACAAACAAUAUAUAUUAUCACAAAC (ssRNA) [Id_ii_S3_P4E.3_K4.2_C4.2_[C-2A]_[T-1A]_H4.2_A4.1_F4.1_T4.2_[G10T]_[T11C]]	70.9 nM
UCUCUUUGUAUGAUUUUCUCUU (ssRNA) [Ib_S1_P5E.1_K5.1_C5.1_H5.1_A5.1_[T6G]_F5.1_[A10T]_T5.1]	39.5 nM
ACAAACACUAUAUAUUACCACAAAC (ssRNA) [Id_ii_S3_P4E.3_K4.2_C4.2_[C-2A]_[T-1C]_H4.2_A4.1_F4.1_T4.2_[G10C]_[T11C]]	33.5 nM
ACAAACGCACACUAUUAGAACAAAC (ssRNA) [Id_ii_S3_P4E.4_K4.3_C4.2_[C-2G]_[T-1C]_H4.3_A4.1_F4.1_T4.2_[T11A]]	> 2300 nM
ACAAACGUUAUAUAUUAUUACAAAC (ssRNA) [Id_ii_S3_P4E.3_K4.2_C4.2_[C-2G]_H4.2_A4.1_F4.1_T4.2_[G10T]]	31.6 nM
ACAAACUAUAUAUAUUACGACAAAC (ssRNA) [Id_ii_S3_P4E.3_K4.2_C4.2_[C-2T]_[T-1A]_H4.2_A4.1_F4.1_T4.2_[G10C]_[T11G]]	27.8 nM
ACAAACGAUAUAUAUUAACACAAAC (ssRNA) [Id_ii_S3_P4E.3_K4.2_C4.2_[C-2G]_[T-1A]_H4.2_A4.1_F4.1_T4.2_[G10A]_[T11C]]	52.9 nM
ACAAACAGUAUAUAUUAACACAAAC (ssRNA) [Id_ii_S3_P4E.3_K4.2_C4.2_[C-2A]_[T-1G]_H4.2_A4.1_F4.1_T4.2_[G10A]_[T11C]]	38.8 nM
ACAAACUUUAUAUAUUAACACAAAC (ssRNA) [Id_ii_S3_P4E.3_K4.2_C4.2_[C-2T]_H4.2_A4.1_F4.1_T4.2_[G10A]_[T11C]]	29.5 nM
UCUCUUUGUAUCAUUUUCUCUU (ssRNA) [Ib_S1_P5E.1_K5.1_C5.1_H5.1_A5.1_[T6C]_F5.1_[A10T]_T5.1]	7.85 nM
UCUCUUUGUAUAAUUCUCUCUU (ssRNA) [Ib_S1_P5E.1_K5.1_C5.1_H5.1_A5.1_[T6A]_F5.1_[A10C]_T5.1]	10.6 nM
ACAAACGUUAUAUAUUACUACAAAC (ssRNA) [Id_ii_S3_P4E.3_K4.2_C4.2_[C-2G]_H4.2_A4.1_F4.1_T4.2_[G10C]]	58 nM
ACAAACCUUAUAUAUUAGUACAAAC (ssRNA) [If_S3_P4E.3_K4.2_C4.2_H4.2_A4.1_F4.1_T4.2]	3.71 nM
ACAAACCUUAUAUAUUAACACAAAC (ssRNA) [Id_ii_S3_P4E.3_K4.2_C4.2_H4.2_A4.1_F4.1_T4.2_[G10A]_[T11C]]	21.6 nM
ACAAACCCUAUAUAUUAUUACAAAC (ssRNA) [Id_ii_S3_P4E.3_K4.2_C4.2_[T-1C]_H4.2_A4.1_F4.1_T4.2_[G10T]]	13.3 nM
ACAAACAUUAUAUAUUACAACAAAC (ssRNA) [Id_ii_S3_P4E.3_K4.2_C4.2_[C-2A]_H4.2_A4.1_F4.1_T4.2_[G10C]_[T11A]]	27.7 nM

Binder	Kd
ACAAACAAUAUAUAUUACGACAAAC (ssRNA) [Id_ii_S3_P4E.3_K4.2_C4.2_[C-2A]_[T-1A]_H4.2_A4.1_F4.1_T4.2_[G10C]_[T11G]]	43.6 nM
UCUCUUUGUAUUUUUGUCUCUU (ssRNA) [Ib_S1_P5E.1_K5.1_C5.1_H5.1_A5.1_[A7T]_F5.1_[A10G]_T5.1]	13.7 nM
ACAAACACUAUAUAUUAUAACAAAC (ssRNA) [Id_ii_S3_P4E.3_K4.2_C4.2_[C-2A]_[T-1C]_H4.2_A4.1_F4.1_T4.2_[G10T]_[T11A]]	20.5 nM
ACAAACGUUAUAUAUUAUCACAAAC (ssRNA) [Id_ii_S3_P4E.3_K4.2_C4.2_[C-2G]_H4.2_A4.1_F4.1_T4.2_[G10T]_[T11C]]	42.4 nM
ACAAACAGUAUAUAUUAUCACAAAC (ssRNA) [Id_ii_S3_P4E.3_K4.2_C4.2_[C-2A]_[T-1G]_H4.2_A4.1_F4.1_T4.2_[G10T]_[T11C]]	25.5 nM
ACAAACGAUAUAUAUUAAGACAAAC (ssRNA) [Id_ii_S3_P4E.3_K4.2_C4.2_[C-2G]_[T-1A]_H4.2_A4.1_F4.1_T4.2_[G10A]_[T11G]]	76.8 nM
ACAAACAUUAUAUAUUAGAACAAAC (ssRNA) [Id_ii_S3_P4E.3_K4.2_C4.2_[C-2A]_H4.2_A4.1_F4.1_T4.2_[T11A]]	12.8 nM
ACAAACAGUAUAUAUUAGGACAAAC (ssRNA) [Id_ii_S3_P4E.3_K4.2_C4.2_[C-2A]_[T-1G]_H4.2_A4.1_F4.1_T4.2_[T11G]]	20.3 nM
ACAAACAUUAUAUAUUACGACAAAC (ssRNA) [Id_ii_S3_P4E.3_K4.2_C4.2_[C-2A]_H4.2_A4.1_F4.1_T4.2_[G10C]_[T11G]]	21.4 nM
ACAAACAGUAUAUAUUAGAACAAAC (ssRNA) [Id_ii_S3_P4E.3_K4.2_C4.2_[C-2A]_[T-1G]_H4.2_A4.1_F4.1_T4.2_[T11A]]	11.3 nM
ACAAACCCUAUAUAUUAAUACAAAC (ssRNA) [Id_ii_S3_P4E.3_K4.2_C4.2_[T-1C]_H4.2_A4.1_F4.1_T4.2_[G10A]]	14 nM
ACAAACACUAUAUAUUAAAACAAAC (ssRNA) [Id_ii_S3_P4E.3_K4.2_C4.2_[C-2A]_[T-1C]_H4.2_A4.1_F4.1_T4.2_[G10A]_[T11A]]	34 nM
ACAAACUCUAUAUAUUAUGACAAAC (ssRNA) [Id_ii_S3_P4E.3_K4.2_C4.2_[C-2T]_[T-1C]_H4.2_A4.1_F4.1_T4.2_[G10T]_[T11G]]	14.5 nM
ACAAACCUUAUAUAUUAAUACAAAC (ssRNA) [Id_ii_S3_P4E.3_K4.2_C4.2_H4.2_A4.1_F4.1_T4.2_[G10A]]	14 nM
ACAAACAAUAUAUAUUAAAACAAAC (ssRNA) [Id_ii_S3_P4E.3_K4.2_C4.2_[C-2A]_[T-1A]_H4.2_A4.1_F4.1_T4.2_[G10A]_[T11A]]	108 nM
ACAAACAUUAUAUAUUAUCACAAAC (ssRNA) [Id_ii_S3_P4E.3_K4.2_C4.2_[C-2A]_H4.2_A4.1_F4.1_T4.2_[G10T]_[T11C]]	19.4 nM
ACAAACAAUAUAUAUUACUACAAAC (ssRNA) [Id_ii_S3_P4E.3_K4.2_C4.2_[C-2A]_[T-1A]_H4.2_A4.1_F4.1_T4.2_[G10C]]	28.2 nM
ACAAACAAUAUAUAUUAGCACAAAC (ssRNA) [Id_ii_S3_P4E.3_K4.2_C4.2_[C-2A]_[T-1A]_H4.2_A4.1_F4.1_T4.2_[T11C]]	11.9 nM
ACAAACACUAUAUAUUAACACAAAC (ssRNA) [Id_ii_S3_P4E.3_K4.2_C4.2_[C-2A]_[T-1C]_H4.2_A4.1_F4.1_T4.2_[G10A]_[T11C]]	29.6 nM

Binder	Kd
ACAAACCCUAUAUAUUACUACAAAC (ssRNA) [Id_ii_S3_P4E.3_K4.2_C4.2_[T-1C]_H4.2_A4.1_F4.1_T4.2_[G10C]]	18.4 nM
ACAAACGCACACUAUUACUACAAAC (ssRNA) [Id_ii_S3_P4E.4_K4.3_C4.2_[C-2G]_[T-1C]_H4.3_A4.1_F4.1_T4.2_[G10C]]	> 2300 nM
ACAAACACUAUAUAUUACUACAAAC (ssRNA) [Id_ii_S3_P4E.3_K4.2_C4.2_[C-2A]_[T-1C]_H4.2_A4.1_F4.1_T4.2_[G10C]]	17.6 nM
ACAAACUUUAUAUAUUAUCACAAAC (ssRNA) [Id_ii_S3_P4E.3_K4.2_C4.2_[C-2T]_H4.2_A4.1_F4.1_T4.2_[G10T]_[T11C]]	16.5 nM
ACAAACUAUAUAUAUUAACACAAAC (ssRNA) [Id_ii_S3_P4E.3_K4.2_C4.2_[C-2T]_[T-1A]_H4.2_A4.1_F4.1_T4.2_[G10A]_[T11C]]	32.9 nM
ACAAACGAUAUAUAUUAAAACAAAC (ssRNA) [Id_ii_S3_P4E.3_K4.2_C4.2_[C-2G]_[T-1A]_H4.2_A4.1_F4.1_T4.2_[G10A]_[T11A]]	74.6 nM
UCUCUUUGUACUAUUAUCUCUU (ssRNA) [Ie_S1_P4E.1_K4.1_C4.1_H4.1_[+4C]_A4.1_F4.1_T4.1]	4.49 nM
ACAAACGAUAUAUAUUAUGACAAAC (ssRNA) [Id_ii_S3_P4E.3_K4.2_C4.2_[C-2G]_[T-1A]_H4.2_A4.1_F4.1_T4.2_[G10T]_[T11G]]	48.6 nM
ACAAACGAUAUAUAUUAAUACAAAC (ssRNA) [Id_ii_S3_P4E.3_K4.2_C4.2_[C-2G]_[T-1A]_H4.2_A4.1_F4.1_T4.2_[G10A]]	40.7 nM
ACAAACUCUAUAUAUUAUAACAAAC (ssRNA) [Id_ii_S3_P4E.3_K4.2_C4.2_[C-2T]_[T-1C]_H4.2_A4.1_F4.1_T4.2_[G10T]_[T11A]]	15.5 nM
ACAAACCUUAUAUAUUACUACAAAC (ssRNA) [Id_ii_S3_P4E.3_K4.2_C4.2_H4.2_A4.1_F4.1_T4.2_[G10C]]	13.3 nM
ACAAACCAUAUAUAUUACCACAAAC (ssRNA) [Id_ii_S3_P4E.3_K4.2_C4.2_[T-1A]_H4.2_A4.1_F4.1_T4.2_[G10C]_[T11C]]	32.1 nM
ACAAACUUUAUAUAUUAUAACAAAC (ssRNA) [Id_ii_S3_P4E.3_K4.2_C4.2_[C-2T]_H4.2_A4.1_F4.1_T4.2_[G10T]_[T11A]]	18.1 nM
ACAAACGAUAUAUAUUAUAACAAAC (ssRNA) [Id_ii_S3_P4E.3_K4.2_C4.2_[C-2G]_[T-1A]_H4.2_A4.1_F4.1_T4.2_[G10T]_[T11A]]	41.7 nM
ACAAACCCUAUAUAUUACGACAAAC (ssRNA) [Id_ii_S3_P4E.3_K4.2_C4.2_[T-1C]_H4.2_A4.1_F4.1_T4.2_[G10C]_[T11G]]	16.6 nM
ACAAACACUAUAUAUUAUGACAAAC (ssRNA) [Id_ii_S3_P4E.3_K4.2_C4.2_[C-2A]_[T-1C]_H4.2_A4.1_F4.1_T4.2_[G10T]_[T11G]]	16.6 nM
ACAAACAUUAUAUAUUACUACAAAC (ssRNA) [Id_ii_S3_P4E.3_K4.2_C4.2_[C-2A]_H4.2_A4.1_F4.1_T4.2_[G10C]]	21.1 nM
ACAAACUUUAUAUAUUACGACAAAC (ssRNA) [Id_ii_S3_P4E.3_K4.2_C4.2_[C-2T]_H4.2_A4.1_F4.1_T4.2_[G10C]_[T11G]]	19.4 nM
ACAAACCCUAUAUAUUAACACAAAC (ssRNA) [Id_ii_S3_P4E.3_K4.2_C4.2_[T-1C]_H4.2_A4.1_F4.1_T4.2_[G10A]_[T11C]]	25.9 nM
